According to the supplement of paper PMC9112550, “Optimization of the antimicrobial peptide Bac7 by deep mutational scanning” (BMC Biology, 2022):

Test system: Escherichia coli TOP10
Assay: shrunken log2 fold change of peptide-encoding DNA abundance (4.5 h post-induction vs induction); higher = less antimicrobial activity (less host growth inhibition)
Details: time post-induction: 4.5 h; library: site-saturation at positions 5, 18, 19, 20
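Also: peptides expressed intracellularly from a pBAD plasmid library in pooled LB shake-flask culture, induced with 0.3% L-arabinose, DNA abundance read by NGS, three biological replicates, DESeq2 with apeglm shrinkage.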

| Sequence | shrunken log2 fold change |
| --- | --- |
| RRIRGRPPRLPRPRPRPCHKPRP | 0.121 |
| RRIRLRPPRLPRPRPRPGGMPRP | -0.16 |
| RRIRLRPPRLPRPRPRPISTPRP | -0.161 |
| RRIRPRPPRLPRPRPRPHLMPRP | -0.0526 |
| RRIRQRPPRLPRPRPRPSISPRP | -0.22 |
| RRIRRRPPRLPRPRPRPKNDPRP | 0.277 |
| RRIRGRPPRLPRPRPRPNPPPRP | 0.336 |
| RRIRGRPPRLPRPRPRPPIQPRP | 0.341 |
| RRIRLRPPRLPRPRPRPWYTPRP | -0.57 |
| RRIRTRPPRLPRPRPRPMVPPRP | -0.0651 |
| RRIRSRPPRLPRPRPRPMLGPRP | 0.106 |
| RRIRPRPPRLPRPRPRPSDNPRP | -0.449 |
| RRIRFRPPRLPRPRPRPPSPPRP | 0.688 |
| RRIRWRPPRLPRPRPRPVAGPRP | 0.524 |
| RRIRERPPRLPRPRPRPQIGPRP | -0.0217 |
| RRIRRRPPRLPRPRPRPEWYPRP | -0.128 |
| RRIRLRPPRLPRPRPRPFSGPRP | -0.374 |
| RRIRNRPPRLPRPRPRPAHNPRP | -0.259 |
| RRIRCRPPRLPRPRPRPAYYPRP | -0.476 |
| RRIRRRPPRLPRPRPRPQASPRP | 0.0463 |
| RRIRDRPPRLPRPRPRPYHHPRP | -0.0229 |
| RRIRWRPPRLPRPRPRPLSDPRP | 0.254 |
| RRIRKRPPRLPRPRPRPMGQPRP | 0.0265 |
| RRIRQRPPRLPRPRPRPFNTPRP | -0.29 |
| RRIRFRPPRLPRPRPRPHRCPRP | -0.0295 |

| Sequence | shrunken log2 fold change |
| --- | --- |
| RRIRCRPPRLPRPRPRPNSMPRP | -0.745 |
| RRIRVRPPRLPRPRPRPTCRPRP | 0.147 |
| RRIRLRPPRLPRPRPRPWCDPRP | -0.437 |
| RRIRVRPPRLPRPRPRPPTYPRP | -0.432 |
| RRIRERPPRLPRPRPRPHKHPRP | -0.671 |
| RRIRWRPPRLPRPRPRPLFTPRP | -0.137 |
| RRIRDRPPRLPRPRPRPGHVPRP | -0.0651 |
| RRIRTRPPRLPRPRPRPDACPRP | -0.0191 |
| RRIRHRPPRLPRPRPRPKCEPRP | -0.148 |
| RRIRIRPPRLPRPRPRPMSDPRP | -0.102 |
| RRIRFRPPRLPRPRPRPKNPPRP | -0.00149 |
| RRIRCRPPRLPRPRPRPYYTPRP | 0.00417 |
| RRIRDRPPRLPRPRPRPNTVPRP | -0.364 |
| RRIRYRPPRLPRPRPRPRWDPRP | -0.0245 |
| RRIRARPPRLPRPRPRPTGGPRP | 0.836 |
| RRIRRRPPRLPRPRPRPYMKPRP | -0.0984 |
| RRIRRRPPRLPRPRPRPMQIPRP | 0.58 |
| RRIRKRPPRLPRPRPRPRFLPRP | 0.101 |
| RRIRTRPPRLPRPRPRPCSLPRP | -0.128 |
| RRIRERPPRLPRPRPRPAVGPRP | 0.209 |
| RRIRWRPPRLPRPRPRPLHLPRP | -0.234 |
| RRIRLRPPRLPRPRPRPTRQPRP | -0.0888 |
| RRIRKRPPRLPRPRPRPVFLPRP | -0.0387 |
| RRIRSRPPRLPRPRPRPPEWPRP | 0.263 |
| RRIRARPPRLPRPRPRPPTTPRP | 0.775 |

| Sequence | shrunken log2 fold change |
| --- | --- |
| RRIRNRPPRLPRPRPRPRNLPRP | -0.0378 |
| RRIRKRPPRLPRPRPRPPLEPRP | 0.456 |
| RRIRQRPPRLPRPRPRPALVPRP | 0.297 |
| RRIRVRPPRLPRPRPRPYHSPRP | -1.02 |
| RRIRIRPPRLPRPRPRPNSKPRP | -0.899 |
| RRIRKRPPRLPRPRPRPSDDPRP | 0.154 |
| RRIRVRPPRLPRPRPRPMGTPRP | 0.113 |
| RRIRRRPPRLPRPRPRPKVLPRP | 0.378 |
| RRIRFRPPRLPRPRPRPCHWPRP | -0.127 |
| RRIRYRPPRLPRPRPRPWYVPRP | -1.13 |
| RRIRIRPPRLPRPRPRPYEKPRP | -0.352 |
| RRIRFRPPRLPRPRPRPWEDPRP | 0.0682 |
| RRIRYRPPRLPRPRPRPFQMPRP | -0.143 |
| RRIRYRPPRLPRPRPRPNVCPRP | 0.00285 |
| RRIRVRPPRLPRPRPRPKRDPRP | 0.292 |
| RRIRGRPPRLPRPRPRPGWFPRP | 0.27 |
| RRIRCRPPRLPRPRPRPHLNPRP | -0.627 |
| RRIRMRPPRLPRPRPRPSYDPRP | 0.26 |
| RRIRARPPRLPRPRPRPHWDPRP | 0.116 |
| RRIRNRPPRLPRPRPRPLTRPRP | 0.0454 |
| RRIRWRPPRLPRPRPRPPMRPRP | 1.18 |
| RRIRIRPPRLPRPRPRPAHSPRP | -0.0596 |
| RRIRQRPPRLPRPRPRPETKPRP | 0.0652 |
| RRIRMRPPRLPRPRPRPPGEPRP | 1.47 |
| RRIRWRPPRLPRPRPRPRACPRP | 0.468 |

| Sequence | shrunken log2 fold change |
| --- | --- |
| RRIRKRPPRLPRPRPRPSNQPRP | -0.018 |
| RRIRERPPRLPRPRPRPIAWPRP | -0.199 |
| RRIRFRPPRLPRPRPRPLYPPRP | -0.205 |
| RRIRSRPPRLPRPRPRPRHYPRP | -0.172 |
| RRIRVRPPRLPRPRPRPFMGPRP | -0.334 |
| RRIRKRPPRLPRPRPRPHEDPRP | 0.139 |
| RRIRNRPPRLPRPRPRPGWAPRP | 0.135 |
| RRIRHRPPRLPRPRPRPFPHPRP | 0.188 |
| RRIRNRPPRLPRPRPRPCVAPRP | -0.23 |
| RRIRARPPRLPRPRPRPHQWPRP | 0.137 |
| RRIRIRPPRLPRPRPRPFPVPRP | -0.339 |
| RRIRMRPPRLPRPRPRPQNNPRP | -0.13 |
| RRIRRRPPRLPRPRPRPKMQPRP | 0.336 |
| RRIRDRPPRLPRPRPRPNEFPRP | -0.0102 |
| RRIRMRPPRLPRPRPRPLEDPRP | 2.77 |
| RRIRVRPPRLPRPRPRPTRDPRP | 0.472 |
| RRIRVRPPRLPRPRPRPLHDPRP | -0.41 |
| RRIRLRPPRLPRPRPRPAKHPRP | -0.221 |
| RRIRIRPPRLPRPRPRPANIPRP | -0.383 |
| RRIRFRPPRLPRPRPRPALIPRP | -0.00983 |
| RRIRIRPPRLPRPRPRPHGRPRP | -0.0215 |
| RRIRWRPPRLPRPRPRPRMAPRP | 0.614 |
| RRIRNRPPRLPRPRPRPKILPRP | 0.0428 |
| RRIRKRPPRLPRPRPRPHKDPRP | -0.113 |
| RRIRRRPPRLPRPRPRPEDTPRP | 0.0364 |

| Sequence | shrunken log2 fold change |
| --- | --- |
| RRIRDRPPRLPRPRPRPHISPRP | -0.0535 |
| RRIRARPPRLPRPRPRPQAHPRP | 0.324 |
| RRIRIRPPRLPRPRPRPFWDPRP | -0.0885 |
| RRIRIRPPRLPRPRPRPLPVPRP | 0.094 |
| RRIRDRPPRLPRPRPRPIIPPRP | -0.644 |
| RRIRSRPPRLPRPRPRPVQYPRP | -0.00908 |
| RRIRIRPPRLPRPRPRPKTPPRP | -0.0573 |
| RRIRARPPRLPRPRPRPYKCPRP | -0.138 |
| RRIRQRPPRLPRPRPRPWRKPRP | -0.0153 |
| RRIRHRPPRLPRPRPRPCDEPRP | -0.0443 |
| RRIRRRPPRLPRPRPRPGLFPRP | 0.389 |
| RRIRYRPPRLPRPRPRPGEQPRP | 0.0237 |
| RRIRKRPPRLPRPRPRPYILPRP | -0.0873 |
| RRIRQRPPRLPRPRPRPRCCPRP | 0.061 |
| RRIRLRPPRLPRPRPRPLQLPRP | 0.267 |
| RRIRHRPPRLPRPRPRPSAPPRP | -0.239 |
| RRIRNRPPRLPRPRPRPPMKPRP | -0.216 |
| RRIRSRPPRLPRPRPRPGKTPRP | -0.112 |
| RRIRIRPPRLPRPRPRPSSIPRP | -0.169 |
| RRIRFRPPRLPRPRPRPHCKPRP | -0.112 |
| RRIRERPPRLPRPRPRPWAGPRP | -0.208 |
| RRIRCRPPRLPRPRPRPGHDPRP | -0.00827 |
| RRIRHRPPRLPRPRPRPQCSPRP | -0.0894 |
| RRIRMRPPRLPRPRPRPKMGPRP | -0.00235 |
| RRIRDRPPRLPRPRPRPIEKPRP | -0.0135 |

| Sequence | shrunken log2 fold change |
| --- | --- |
| RRIRRRPPRLPRPRPRPPCIPRP | 0.156 |
| RRIRTRPPRLPRPRPRPCLVPRP | -0.175 |
| RRIRGRPPRLPRPRPRPCQPPRP | -0.0639 |
| RRIRVRPPRLPRPRPRPMPSPRP | 0.333 |
| RRIRRRPPRLPRPRPRPHLPPRP | 0.141 |
| RRIRLRPPRLPRPRPRPHVIPRP | 0.0211 |
| RRIRPRPPRLPRPRPRPPSSPRP | -0.207 |
| RRIRRRPPRLPRPRPRPHWNPRP | -0.159 |
| RRIRCRPPRLPRPRPRPQDKPRP | -0.579 |
| RRIRLRPPRLPRPRPRPTVHPRP | -0.131 |
| RRIRTRPPRLPRPRPRPTAMPRP | 0.301 |
| RRIRLRPPRLPRPRPRPNLVPRP | -0.283 |
| RRIRTRPPRLPRPRPRPLYPPRP | -0.154 |
| RRIRRRPPRLPRPRPRPFDHPRP | -0.242 |
| RRIRMRPPRLPRPRPRPLNCPRP | -0.158 |
| RRIRERPPRLPRPRPRPYAIPRP | -0.52 |
| RRIRKRPPRLPRPRPRPMLTPRP | 0.189 |
| RRIRMRPPRLPRPRPRPLDSPRP | 0.204 |
| RRIRKRPPRLPRPRPRPFRNPRP | -0.309 |
| RRIRCRPPRLPRPRPRPYDVPRP | -0.0223 |
| RRIRNRPPRLPRPRPRPEKNPRP | 0.907 |
| RRIRWRPPRLPRPRPRPPEFPRP | 0.094 |
| RRIRHRPPRLPRPRPRPYLSPRP | -0.221 |
| RRIRERPPRLPRPRPRPQQNPRP | -0.122 |
| RRIRERPPRLPRPRPRPVDTPRP | 0.000639 |
